Data: patent publication US20250115663A1 (CELLDEX THERAPEUTICS, published 2025)

Experiments:
[1] = molecular target: T1, kappa-sCD40(1-94)-Flag mutant fragment B (multiple mutations of residues 13-15); assay: ELISA, kappa-sCD40-Flag fusion captured on anti-Flag, anti-human IgG Fc-HRP
T1 construct: also called B (13-15)

[2] = molecular target: T2, kappa-sCD40(1-94)-Flag mutant fragment C (multiple mutations of residues 25, 26, 28 and 30); assay: as above
T2 construct: also called C (25, 26, 28, 30)

[3] = molecular target: T3, kappa-sCD40(1-94)-Flag point mutant P2Q (human, UniProt P25942 21-114); assay: as above
T3 construct: not shown: N-terminal human kappa light chain; C-terminal Flag tag
T3 chain: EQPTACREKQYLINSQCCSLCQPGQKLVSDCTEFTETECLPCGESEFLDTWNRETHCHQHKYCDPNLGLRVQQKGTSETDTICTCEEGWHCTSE

[4] = molecular target: T4, kappa-sCD40(1-94)-Flag point mutant E1G (human, UniProt P25942 22-114); assay: ELISA, kappa-sCD40-Flag fusion (~2 ug/ml) captured on anti-Flag, anti-human IgG Fc-HRP
T4 construct: not shown: N-terminal human kappa light chain; C-terminal Flag tag
Experimental: (§1) containing the sCD40 fusion proteins were captured to microtiter plates that were pre-coated with 5 μg/ml mouse anti-Flag antibody (Sigma) in PBS and blocked with 5% bovine serum albumin in PBS. Following incubation with the CD40 antibody, the microplates were washed with PBS/Tween, and incubated with a goat anti-human IgG Fc polyclonal reagent conjugated to horseradish peroxidase. After washing, the plates were developed with HRP substrate, and analyzed at OD 450-650 using a microtiter plate reader. An ELISA with a goat anti-human IgG Fab2-HRP to measure kappa chain binding was carried out in parallel to validate the sCD40 fusion protein expression from different transfections.

[5] = molecular target: T4, kappa-sCD40(1-94)-Flag point mutant E1G; assay: ELISA, mutated kappa-sCD40(1-94)-Flag captured on anti-Flag antibody, detection anti-human IgG Fc-HRP; the concentration axis is taken as that of 3C3
Experimental: as §1, with “1 μg/ml of purified kappa-sCD40-Flag fusion proteins or CHO cell supernatants containing” for “containing”

[6] = molecular target: T3, kappa-sCD40(1-94)-Flag point mutant P2Q; assay: as above
Experimental: as §1, with “1 μg/ml of purified kappa-sCD40-Flag fusion proteins or CHO cell supernatants containing” for “containing”

[7] = molecular target: T5, kappa-sCD40(1-94)-Flag point mutant P3S (human, UniProt P25942 21-114); assay: as above
T5 construct: not shown: N-terminal human kappa light chain; C-terminal Flag tag
T5 chain: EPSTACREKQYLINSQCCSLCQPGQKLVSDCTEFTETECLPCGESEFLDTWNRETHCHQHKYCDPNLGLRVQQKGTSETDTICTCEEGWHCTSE
Experimental: as §1, with “1 μg/ml of purified kappa-sCD40-Flag fusion proteins or CHO cell supernatants containing” for “containing”

[8] = molecular target: T6, kappa-sCD40(1-94)-Flag point mutant T4V (human, UniProt P25942 21-114); assay: as above
T6 construct: not shown: N-terminal human kappa light chain; C-terminal Flag tag
T6 chain: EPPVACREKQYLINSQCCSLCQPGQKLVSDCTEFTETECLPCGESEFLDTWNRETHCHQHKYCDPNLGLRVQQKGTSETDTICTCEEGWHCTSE
Experimental: as §1, with “1 μg/ml of purified kappa-sCD40-Flag fusion proteins or CHO cell supernatants containing” for “containing”

[9] = molecular target: T7, kappa-sCD40(1-94)-Flag point mutant E33A (human, UniProt P25942 21-114); assay: as above
T7 construct: not shown: N-terminal human kappa light chain; C-terminal Flag tag
T7 chain: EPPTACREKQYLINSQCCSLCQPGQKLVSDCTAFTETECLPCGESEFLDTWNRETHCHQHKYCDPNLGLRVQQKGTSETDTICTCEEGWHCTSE
Experimental: as §1, with “1 μg/ml of purified kappa-sCD40-Flag fusion proteins or CHO cell supernatants containing” for “containing”

[10] = molecular target: T8, kappa-sCD40(1-94)-Flag point mutant F34L (human, UniProt P25942 21-114); assay: as above
T8 construct: not shown: N-terminal human kappa light chain; C-terminal Flag tag
T8 chain: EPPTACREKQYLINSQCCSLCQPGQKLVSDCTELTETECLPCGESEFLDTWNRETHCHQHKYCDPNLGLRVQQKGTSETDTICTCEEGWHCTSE
Experimental: as §1, with “1 μg/ml of purified kappa-sCD40-Flag fusion proteins or CHO cell supernatants containing” for “containing”

[11] = molecular target: T9, kappa-sCD40(1-94)-Flag point mutant T35E (human, UniProt P25942 21-114); assay: as above
T9 construct: not shown: N-terminal human kappa light chain; C-terminal Flag tag
T9 chain: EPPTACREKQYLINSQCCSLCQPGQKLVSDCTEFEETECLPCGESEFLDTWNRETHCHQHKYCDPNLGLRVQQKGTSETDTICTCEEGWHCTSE
Experimental: as §1, with “1 μg/ml of purified kappa-sCD40-Flag fusion proteins or CHO cell supernatants containing” for “containing”

[12] = molecular target: T10, kappa-sCD40(1-94)-Flag point mutant E36K (human, UniProt P25942 21-114); assay: as above
T10 construct: not shown: N-terminal human kappa light chain; C-terminal Flag tag
T10 chain: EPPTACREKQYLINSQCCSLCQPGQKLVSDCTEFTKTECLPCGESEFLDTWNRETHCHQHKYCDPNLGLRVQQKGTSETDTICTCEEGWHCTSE
Experimental: as §1, with “1 μg/ml of purified kappa-sCD40-Flag fusion proteins or CHO cell supernatants containing” for “containing”

[13] = molecular target: T11, kappa-sCD40-Flag fusion protein, fragment amino acids 1-94 (human, UniProt P25942 21-114); assay: ELISA, kappa-sCD40(1-94)-Flag captured on anti-Flag antibody, detection anti-human IgG Fc-HRP; the concentration axis is taken as that of 3C3 (not said on the sheet)
T11 construct: also called sCD40aa 1-94; not shown: N-terminal human kappa light chain; C-terminal Flag tag
Experimental: as §1, with “1 μg/ml of purified kappa-sCD40-Flag fusion proteins or CHO cell supernatants containing” for “containing”

OD [1]: 2.38 OD 450-650
OD [2]: 2.02 OD 450-650
OD [3]: 2.2 OD 450-650
Average OD [4]: 1.97 OD 450-650
EC50 (read off the curve) [5]: ~0.04 µg/mL
EC50 (read off the curve) [6]: ~0.02 µg/mL
EC50 (read off the curve) [7]: ~0.03 µg/mL
EC50 (read off the curve) [8]: ~0.02 µg/mL
EC50 (read off the curve) [9]: ~0.2 µg/mL
EC50 (read off the curve) [10]: ~0.06 µg/mL
EC50 (read off the curve) [11]: ~0.02 µg/mL
EC50 (read off the curve) [12]: ~0.09 µg/mL
EC50 (read off the curve) [13]: ~0.02 µg/mL
B1: anti-CD40 human monoclonal antibody 3C3 (antibody, human IgG2, kappa, V domains shown)
VH: QVQLVESGGGVVQPGRSLRLSCAGSGFIFSRYGMYWVRQAPGKGLEWVAVIWYDGSYKYYADSVKGRFTISRDNSKNTLYLQMNSLRAEDTAVYYCARESPWYYFDYWGQGTLVTVSS
VL: DIQMTQSPSSLSASVGDRVTITCRASQGISNYLAWYQQKPGKVPKLLIYAASTLQSGVPSRFSGSGSGTDFTLTISSLQPEDVATYYCQKYKSAPFTFGPGTKVDIKR
notes: Human IgG2, C-terminal lysine removed; also called anti-CD40 mAb 3C3; CD40 antibody 3C3
